Values quoted from earlier work in article PMC8602370.

Target: PARP1 (Homo sapiens) (UniProt P09874)
Sequence (P09874 2-1014): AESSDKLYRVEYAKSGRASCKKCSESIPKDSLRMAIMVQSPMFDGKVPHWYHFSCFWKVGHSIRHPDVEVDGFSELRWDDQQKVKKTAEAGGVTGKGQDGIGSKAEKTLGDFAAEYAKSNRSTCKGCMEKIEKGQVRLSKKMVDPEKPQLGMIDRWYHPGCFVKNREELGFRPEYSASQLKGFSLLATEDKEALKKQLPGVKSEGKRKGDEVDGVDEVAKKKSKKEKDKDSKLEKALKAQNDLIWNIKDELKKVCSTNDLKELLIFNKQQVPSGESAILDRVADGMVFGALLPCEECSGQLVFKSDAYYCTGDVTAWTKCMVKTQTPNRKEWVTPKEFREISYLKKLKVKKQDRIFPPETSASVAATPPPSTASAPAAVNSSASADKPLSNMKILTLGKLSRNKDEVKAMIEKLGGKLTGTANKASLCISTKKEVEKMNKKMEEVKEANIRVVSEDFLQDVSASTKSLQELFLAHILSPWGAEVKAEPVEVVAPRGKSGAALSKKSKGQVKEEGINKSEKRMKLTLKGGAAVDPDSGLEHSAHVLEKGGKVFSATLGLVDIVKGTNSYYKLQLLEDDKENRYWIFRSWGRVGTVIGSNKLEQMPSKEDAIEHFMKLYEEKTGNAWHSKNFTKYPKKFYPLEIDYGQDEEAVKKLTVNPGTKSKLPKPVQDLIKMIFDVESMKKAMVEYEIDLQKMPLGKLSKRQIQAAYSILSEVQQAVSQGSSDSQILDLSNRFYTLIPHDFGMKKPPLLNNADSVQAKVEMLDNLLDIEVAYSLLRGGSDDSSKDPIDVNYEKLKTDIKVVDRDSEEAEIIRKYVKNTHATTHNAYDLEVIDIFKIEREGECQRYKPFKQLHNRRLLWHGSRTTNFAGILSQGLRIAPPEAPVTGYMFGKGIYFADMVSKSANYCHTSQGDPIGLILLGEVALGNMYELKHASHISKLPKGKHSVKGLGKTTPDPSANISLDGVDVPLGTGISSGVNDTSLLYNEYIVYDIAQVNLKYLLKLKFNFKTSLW

HPF1, sequence (Q9NWY4 whole entry): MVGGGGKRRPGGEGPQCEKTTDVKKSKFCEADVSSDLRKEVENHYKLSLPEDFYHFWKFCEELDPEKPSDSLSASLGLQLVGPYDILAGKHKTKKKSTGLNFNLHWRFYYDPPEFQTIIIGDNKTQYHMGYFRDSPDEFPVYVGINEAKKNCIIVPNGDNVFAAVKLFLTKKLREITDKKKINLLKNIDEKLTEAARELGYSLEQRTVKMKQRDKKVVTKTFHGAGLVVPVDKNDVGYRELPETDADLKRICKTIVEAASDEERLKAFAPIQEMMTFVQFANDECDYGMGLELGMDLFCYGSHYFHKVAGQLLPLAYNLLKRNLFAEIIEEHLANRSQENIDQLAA

- Kd: 3.5 µM
Substance: HPF1 (from UniProt Q9NWY4)
